target: HLA-A*02:01 (Homo sapiens, UniProt P04439, D140Y/D185E/D98H/E176V/E277Q/G131W/G231S/I119V/I121R/I166T/I218V/L300P/L318F/N151K/N90K/P208A/P217A/Q86G/Q94H/R138H/R169H/T345S); assay: MHC binding assay: UV-ligand exchange with beta2m ELISA (peptide exchange yield); conditions: binding to HLA-A*02:01
How it was run: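 Peptide-MHC complexes formed by UV-ligand exchange, a UV-cleavable peptide being replaced by the candidate peptide. Exchange products diluted 100-fold, captured on streptavidin-coated plates for 1h at 37° C, then detected with 2 ug/ml HRP anti-β2m (1h, 37° C) and TMB, absorbance 450 nm; value is exchange yield.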

Row | Peptide exchange (MHC class I binding score, peptide exchange yield) | Substance
1 | “+++” (≥50 = +++) | 123 (NLWDLTDASVV; listed as Homo sapiens) [compound 123]
2 | “+++” (≥50 = +++) | 111 (YVWGFYPAEV; listed as Homo sapiens) [compound 111]
3 | “+++” (≥50 = +++) | 162 (YQQAQVPSV; listed as Homo sapiens) [compound 162]
4 | “+++” (≥50 = +++) | 345 (VIWKALIHL; listed as Homo sapiens) [compound 345]
5 | “+++” (≥50 = +++) | 254 (TLLAFIMEL; listed as Homo sapiens) [compound 254]
6 | “+++” (≥50 = +++) | 582 (TLCDVILMV; listed as Homo sapiens) [compound 582]
7 | “++++” (≥75% = ++++) | 52 (FLLAHGLGFLL; listed as Homo sapiens) [compound 52]
8 | “+++” (≥50 = +++) | 384 (ILFANPNIFV; listed as Homo sapiens) [compound 384]
9 | “++++” (≥75% = ++++) | 585 (ALWDLAADKQTL; listed as Homo sapiens) [compound 585]
10 | “+++” (≥50 = +++) | 134 (YLQELIFSV; listed as Homo sapiens) [compound 134]
11 | “+++” (≥50 = +++) | 430 (HLYSSIEHLTT; listed as Homo sapiens) [compound 430]
12 | “+++” (≥50 = +++) | 471 (YLYNNMIAKI; listed as Homo sapiens) [compound 471]
13 | “+++” (≥50 = +++) | 325 (FIMPATVADATAV; listed as Homo sapiens) [compound 325]
14 | “+++” (≥50 = +++) | 469 (YLASDEITTV; listed as Homo sapiens) [compound 469]
15 | “++” (≥20% = ++) | 145 (FLATSGTLAGI; listed as Homo sapiens) [compound 145]
16 | “++” (≥20% = ++) | 221 (ALYEEGLLL; listed as Homo sapiens) [compound 221]
17 | “++” (≥20% = ++) | 381 (FIDEAYVEV; listed as Homo sapiens) [compound 381]
18 | “+++” (≥50 = +++) | 383 (ALLELENSVTL; listed as Homo sapiens) [compound 383]
19 | “+++” (≥50 = +++) | 598 (FLFPHSVLV; listed as Homo sapiens) [compound 598]
20 | “++++” (≥75% = ++++) | 137 (TLVLTLPTV; listed as Homo sapiens) [compound 137]
21 | “+++” (≥50 = +++) | 308 (SQYSGQLHEV; listed as Homo sapiens) [compound 308]
22 | “+++” (≥50 = +++) | 546 (VMIAGKVAVV; listed as Homo sapiens) [compound 546]

Row | Peptide exchange (MHC class I binding score, peptide exchange yield) | Substance
23 | “+++” (≥50 = +++) | 224 (TLIDAQWVL; listed as Homo sapiens) [compound 224]
24 | “++” (≥20% = ++) | 261 (YVLEFLEEI; listed as Homo sapiens) [compound 261]
25 | “++++” (≥75% = ++++) | 104 (STMEQNFLL; listed as Homo sapiens) [compound 104]
26 | “++++” (≥75% = ++++) | 310 (FLVDTPLARA; listed as Homo sapiens) [compound 310]
27 | “+++” (≥50 = +++) | 492 (SLFDGFADGLGV; listed as Homo sapiens) [compound 492]
28 | “+++” (≥50 = +++) | 437 (SMAPGLVIQAV; listed as Homo sapiens) [compound 437]
29 | “+++” (≥50 = +++) | 454 (KLPPPPPQA; listed as Homo sapiens) [compound 454]
30 | “++++” (≥75% = ++++) | 62 (VLLDVSAGQLLM; listed as Homo sapiens) [compound 62]
31 | “++” (≥20% = ++) | 522 (TLWYRSPEV; listed as Homo sapiens) [compound 522]
32 | “+++” (≥50 = +++) | 257 (SIFSAFLSV; listed as Homo sapiens) [compound 257]
33 | “++++” (≥75% = ++++) | 178 (ALTEIAFVV; listed as Homo sapiens) [compound 178]
34 | “++++” (≥75% = ++++) | 553 (SLLNQDLHWSL; listed as Homo sapiens) [compound 553]
35 | “+++” (≥50 = +++) | 42 (VLLQKIVSA; listed as Homo sapiens) [compound 42]
36 | “++” (≥20% = ++) | 510 (KLYSVVSQL; listed as Homo sapiens) [compound 510]
37 | “+++” (≥50 = +++) | 365 (YVIDQGETDVYV; listed as Homo sapiens) [compound 365]
38 | “++++” (≥75% = ++++) | 611 (YLLDDGTLVV; listed as Homo sapiens) [compound 611]
39 | “+++” (≥50 = +++) | 490 (FLLQHVQEL; listed as Homo sapiens) [compound 490]
40 | “++++” (≥75% = ++++) | 602 (YLLEQIKLIEV; listed as Homo sapiens) [compound 602]
41 | “+++” (≥50 = +++) | 541 (SMLEPVPEL; listed as Homo sapiens) [compound 541]
42 | “+++” (≥50 = +++) | 390 (ALFMKQIYL; listed as Homo sapiens) [compound 390]
43 | “+++” (≥50 = +++) | 299 (YLLETSGNL; listed as Homo sapiens) [compound 299]
44 | “++” (≥20% = ++) | 461 (VMFRTPLASV; listed as Homo sapiens) [compound 461]

Row | Peptide exchange (MHC class I binding score, peptide exchange yield) | Substance
45 | “+++” (≥50 = +++) | 304 (MTLGQIYYL; listed as Homo sapiens) [compound 304]
46 | “++” (≥20% = ++) | 353 (YLFEMDSSL; listed as Homo sapiens) [compound 353]
47 | “+++” (≥50 = +++) | 593 (GLPRFGIEMV; listed as Homo sapiens) [compound 593]
48 | “++++” (≥75% = ++++) | 340 (ALLSMTFPL; listed as Homo sapiens) [compound 340]
49 | “++++” (≥75% = ++++) | 7 (SLVGLLLYL; listed as Homo sapiens) [compound 7]
50 | “+++” (≥50 = +++) | 205 (SLYPGTETMGL; listed as Homo sapiens) [compound 205]
51 | “++” (≥20% = ++) | 273 (NLFQSVREV; listed as Homo sapiens) [compound 273]
52 | “+++” (≥50 = +++) | 635 (SLDSTLHAV; listed as Homo sapiens) [compound 635]
53 | “++++” (≥75% = ++++) | 68 (SLMELPRGLFL; listed as Homo sapiens) [compound 68]
54 | “+++” (≥50 = +++) | 456 (LLIGHLERV; listed as Homo sapiens) [compound 456]
55 | “++” (≥20% = ++) | 398 (KLLEEDGTIITL; listed as Homo sapiens) [compound 398]
56 | “+++” (≥50 = +++) | 236 (GLLEAKVSL; listed as Homo sapiens) [compound 236]
57 | “+++” (≥50 = +++) | 247 (VLLPNDLLEKV; listed as Homo sapiens) [compound 247]
58 | “+++” (≥50 = +++) | 271 (LVYPLELYPA; listed as Homo sapiens) [compound 271]
59 | “+++” (≥50 = +++) | 367 (SLQNHNHQL; listed as Homo sapiens) [compound 367]
60 | “++” (≥20% = ++) | 565 (ALQETPTSV; listed as Homo sapiens) [compound 565]
61 | “++” (≥20% = ++) | 504 (GLSDGNPSL; listed as Homo sapiens) [compound 504]
62 | “+++” (≥50 = +++) | 442 (GLLGGGGVLGV; listed as Homo sapiens) [compound 442]
63 | “+++” (≥50 = +++) | 605 (KLYEAVPQL; listed as Homo sapiens) [compound 605]
64 | “+++” (≥50 = +++) | 266 (KITDTLIHL; listed as Homo sapiens) [compound 266]
65 | “+++” (≥50 = +++) | 606 (ALWETEVYI; listed as Homo sapiens) [compound 606]
66 | “+++” (≥50 = +++) | 66 (FLDENIGGVAV; listed as Homo sapiens) [compound 66]

Reference: patent publication US10464978B2, “Peptides and combination of peptides for use in immunotherapy against ovarian cancer and other cancers” (immatics biotechnologies GmbH, priority 2015, dated 2019)
